Experimental data published in PMC5484534.

Target: 5,6-TAMRA-labeled short BMAL1 TAD (residues 594-626), wild type (mouse)
Assay: fluorescence polarisation

mouse CRY1 photolyase homology region (PHR, residues 1-491), sequence (P97784 1-491): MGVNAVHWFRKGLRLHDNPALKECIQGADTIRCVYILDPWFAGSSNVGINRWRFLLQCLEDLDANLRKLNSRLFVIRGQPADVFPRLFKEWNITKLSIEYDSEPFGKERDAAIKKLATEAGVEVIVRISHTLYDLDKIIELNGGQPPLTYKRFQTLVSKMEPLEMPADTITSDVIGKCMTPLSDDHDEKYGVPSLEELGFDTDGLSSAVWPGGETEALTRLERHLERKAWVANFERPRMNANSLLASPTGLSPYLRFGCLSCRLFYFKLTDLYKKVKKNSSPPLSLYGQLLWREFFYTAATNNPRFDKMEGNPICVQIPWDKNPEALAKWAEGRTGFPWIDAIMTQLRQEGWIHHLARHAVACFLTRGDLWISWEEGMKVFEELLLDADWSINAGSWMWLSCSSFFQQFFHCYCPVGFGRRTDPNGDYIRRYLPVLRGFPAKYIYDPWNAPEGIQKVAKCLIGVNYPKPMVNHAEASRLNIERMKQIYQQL

Kd: 900 nM
Substance: mouse CRY1 photolyase homology region (PHR, residues 1-491) (from UniProt P97784 1-491) (domain or fragment)
